In patent US20160200782A1:

Experiments:
Experiment in all cases: cell-based or functional assay
[1] = target: PAR-1Bα(h) (human) (UniProt Q7KZI7)
[2] = target: EphB2(h) (human) (UniProt P29323)
[3] = target: GRK7(h) (human) (UniProt Q8WTQ7)
[4] = target: MRCKβ(h) (human) (UniProt Q9Y5S2)
[5] = target: FGFR2(h) (human) (UniProt P21802)
[6] = target: PRK2(h) (human) (UniProt Q16513)
[7] = target: BrSK2(h) (human) (UniProt Q8IWQ3)
[8] = target: PKBγ(h) (human) (UniProt Q9Y243)
[9] = target: DAPK1(h) (human) (UniProt P53355)
[10] = target: EGFR(T790M,L858R)(h) (human) (UniProt P00533)
[11] = target: CHK2(R145W)(h) (human) (UniProt O96017)
Chain of CHK2(R145W)(h) (human) (O96017 5-543 R145W limits assumed): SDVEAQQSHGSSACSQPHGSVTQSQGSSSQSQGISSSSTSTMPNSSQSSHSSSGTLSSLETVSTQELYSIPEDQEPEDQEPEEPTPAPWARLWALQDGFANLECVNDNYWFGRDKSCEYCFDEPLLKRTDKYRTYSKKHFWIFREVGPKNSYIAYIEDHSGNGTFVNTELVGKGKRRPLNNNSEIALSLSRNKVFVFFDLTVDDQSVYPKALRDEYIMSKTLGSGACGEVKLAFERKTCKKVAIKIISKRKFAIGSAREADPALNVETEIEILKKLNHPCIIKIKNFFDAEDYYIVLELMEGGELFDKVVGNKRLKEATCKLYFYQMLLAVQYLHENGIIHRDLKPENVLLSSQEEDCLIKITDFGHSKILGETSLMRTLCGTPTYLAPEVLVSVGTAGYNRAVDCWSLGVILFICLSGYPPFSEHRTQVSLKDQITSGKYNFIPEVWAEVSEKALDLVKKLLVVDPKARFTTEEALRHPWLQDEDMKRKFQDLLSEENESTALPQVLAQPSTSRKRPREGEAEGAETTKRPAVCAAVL

[12] = target: CHK2(I157T)(h) (human) (UniProt O96017)
Chain of CHK2(I157T)(h) (human) (O96017 5-543 I157T limits assumed): as the sequence (O96017 5-543 R145W limits assumed) above, with W141R, I153T counted along it

[13] = target: BRK(h) (human) (UniProt Q13882)
[14] = target: PKBα(h) (human) (UniProt P31749)
[15] = target: SRPK2(h) (human) (UniProt P78362)
[16] = target: NEK11(h) (human) (UniProt Q8NG66)
[17] = target: PKCβII(h) (human) (UniProt P05771)
[18] = target: Ax1(h) (human) (UniProt P30530)
[19] = target: TLK2(h) (human) (UniProt Q86UE8)
[20] = target: ALK(h) (human) (UniProt Q9UM73)
Chain of ALK(h) (human) (Q9UM73 1058-1620 limits assumed): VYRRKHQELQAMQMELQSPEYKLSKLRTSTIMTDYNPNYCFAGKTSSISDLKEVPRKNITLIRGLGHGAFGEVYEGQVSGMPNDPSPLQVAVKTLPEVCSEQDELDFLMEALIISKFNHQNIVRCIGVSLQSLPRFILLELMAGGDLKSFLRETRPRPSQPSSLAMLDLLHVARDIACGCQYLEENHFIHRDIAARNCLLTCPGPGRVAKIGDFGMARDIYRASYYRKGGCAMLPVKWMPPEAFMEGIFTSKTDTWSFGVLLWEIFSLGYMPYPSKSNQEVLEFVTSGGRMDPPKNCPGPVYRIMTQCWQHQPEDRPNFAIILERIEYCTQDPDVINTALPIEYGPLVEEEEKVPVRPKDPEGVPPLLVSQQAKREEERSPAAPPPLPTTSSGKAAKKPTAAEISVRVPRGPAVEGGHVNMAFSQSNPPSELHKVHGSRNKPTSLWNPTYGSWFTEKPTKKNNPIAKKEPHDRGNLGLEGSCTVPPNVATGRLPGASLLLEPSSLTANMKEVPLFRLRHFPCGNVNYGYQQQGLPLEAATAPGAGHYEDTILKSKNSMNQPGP

[21] = target: NEK6(h) (human) (UniProt Q9HC98)
[22] = target: NLK(h) (human) (UniProt Q9UBE8)
[23] = target: ASK1(h) (human) (UniProt Q99683)
[24] = target: Fes(h) (human) (UniProt P07332)
[25] = target: PKCβI(h) (human) (UniProt P05771)
[26] = target: ROCK-I(h) (human) (UniProt Q13464)
[27] = target: VRK2(h) (human) (UniProt Q86Y07)
[28] = target: ARK5(h) (human) (UniProt O60285)
[29] = target: mTOR(h) (human) (UniProt P42345)
[30] = target: ACK1(h) (human) (UniProt Q07912)
[31] = target: EphA1(h) (human) (UniProt P21709)
[32] = target: CLK3(h) (human) (UniProt P49761)
[33] = target: BrSK1(h) (human) (UniProt Q8TDC3)
[34] = target: SGK2(h) (human) (UniProt Q9HBY8)
[35] = target: DMPK(h) (human) (UniProt Q09013)
Chain of DMPK(h) (human) (Q09013 whole entry): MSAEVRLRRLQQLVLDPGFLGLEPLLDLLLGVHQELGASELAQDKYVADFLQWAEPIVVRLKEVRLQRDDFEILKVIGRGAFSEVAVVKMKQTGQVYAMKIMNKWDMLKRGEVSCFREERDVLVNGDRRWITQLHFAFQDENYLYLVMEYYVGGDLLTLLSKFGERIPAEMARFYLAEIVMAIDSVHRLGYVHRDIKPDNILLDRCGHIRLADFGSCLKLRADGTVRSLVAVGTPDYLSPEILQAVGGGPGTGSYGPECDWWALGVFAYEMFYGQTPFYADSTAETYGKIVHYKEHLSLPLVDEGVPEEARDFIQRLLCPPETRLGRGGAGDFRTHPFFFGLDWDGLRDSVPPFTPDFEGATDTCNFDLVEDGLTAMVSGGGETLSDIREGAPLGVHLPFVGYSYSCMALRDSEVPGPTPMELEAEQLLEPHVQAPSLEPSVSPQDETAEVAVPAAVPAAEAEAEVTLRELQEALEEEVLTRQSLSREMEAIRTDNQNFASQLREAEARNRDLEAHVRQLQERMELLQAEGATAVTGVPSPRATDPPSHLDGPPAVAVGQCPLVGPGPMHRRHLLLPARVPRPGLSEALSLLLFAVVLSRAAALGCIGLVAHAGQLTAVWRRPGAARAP

[36] = target: RIPK2(h) (human) (UniProt O43353)
Chain of RIPK2(h) (human) (O43353 1-299 limits assumed): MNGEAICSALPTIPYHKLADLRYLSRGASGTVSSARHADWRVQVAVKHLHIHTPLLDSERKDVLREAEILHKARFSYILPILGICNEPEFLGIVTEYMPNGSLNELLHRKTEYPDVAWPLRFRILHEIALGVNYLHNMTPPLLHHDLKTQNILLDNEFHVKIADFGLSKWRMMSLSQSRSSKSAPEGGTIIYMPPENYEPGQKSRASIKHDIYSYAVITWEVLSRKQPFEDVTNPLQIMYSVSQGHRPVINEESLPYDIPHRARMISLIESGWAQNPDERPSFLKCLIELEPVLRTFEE

[37] = target: cKit(V560G)(h) (human) (UniProt P10721)
[38] = target: Src(1-530)(h) (human) (UniProt P12931)
[39] = target: Rsk1(h) (human) (UniProt Q15418)
[40] = target: GSK3β(h) (human) (UniProt P49841)
[41] = target: Tec(h)activated (human) (UniProt P42680)
Chain of Tec(h)activated (human) (P42680 whole entry): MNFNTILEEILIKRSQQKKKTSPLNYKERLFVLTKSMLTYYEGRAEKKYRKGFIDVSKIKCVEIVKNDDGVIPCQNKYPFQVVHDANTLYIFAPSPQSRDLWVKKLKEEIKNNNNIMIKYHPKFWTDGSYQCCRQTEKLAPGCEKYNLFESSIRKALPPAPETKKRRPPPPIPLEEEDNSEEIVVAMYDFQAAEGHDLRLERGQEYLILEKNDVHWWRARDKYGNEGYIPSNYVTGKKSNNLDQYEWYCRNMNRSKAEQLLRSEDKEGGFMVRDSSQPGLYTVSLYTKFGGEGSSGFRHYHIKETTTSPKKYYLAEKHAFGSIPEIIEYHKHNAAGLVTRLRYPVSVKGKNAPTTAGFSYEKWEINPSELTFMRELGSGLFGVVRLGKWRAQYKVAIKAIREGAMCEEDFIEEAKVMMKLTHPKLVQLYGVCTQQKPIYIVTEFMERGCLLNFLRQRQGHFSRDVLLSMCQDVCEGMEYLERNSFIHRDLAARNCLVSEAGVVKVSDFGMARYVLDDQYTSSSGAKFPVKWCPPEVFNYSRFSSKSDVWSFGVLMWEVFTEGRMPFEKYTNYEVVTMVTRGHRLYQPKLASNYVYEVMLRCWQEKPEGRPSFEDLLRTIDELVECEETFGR

[42] = target: SIK(h) (human) (UniProt P57059)
[43] = target: DCAMKL2(h) (human) (UniProt Q8N568)
[44] = target: PKD2(h) (human) (UniProt Q9BZL6)
Chain of PKD2(h) (human) (Q9BZL6 whole entry): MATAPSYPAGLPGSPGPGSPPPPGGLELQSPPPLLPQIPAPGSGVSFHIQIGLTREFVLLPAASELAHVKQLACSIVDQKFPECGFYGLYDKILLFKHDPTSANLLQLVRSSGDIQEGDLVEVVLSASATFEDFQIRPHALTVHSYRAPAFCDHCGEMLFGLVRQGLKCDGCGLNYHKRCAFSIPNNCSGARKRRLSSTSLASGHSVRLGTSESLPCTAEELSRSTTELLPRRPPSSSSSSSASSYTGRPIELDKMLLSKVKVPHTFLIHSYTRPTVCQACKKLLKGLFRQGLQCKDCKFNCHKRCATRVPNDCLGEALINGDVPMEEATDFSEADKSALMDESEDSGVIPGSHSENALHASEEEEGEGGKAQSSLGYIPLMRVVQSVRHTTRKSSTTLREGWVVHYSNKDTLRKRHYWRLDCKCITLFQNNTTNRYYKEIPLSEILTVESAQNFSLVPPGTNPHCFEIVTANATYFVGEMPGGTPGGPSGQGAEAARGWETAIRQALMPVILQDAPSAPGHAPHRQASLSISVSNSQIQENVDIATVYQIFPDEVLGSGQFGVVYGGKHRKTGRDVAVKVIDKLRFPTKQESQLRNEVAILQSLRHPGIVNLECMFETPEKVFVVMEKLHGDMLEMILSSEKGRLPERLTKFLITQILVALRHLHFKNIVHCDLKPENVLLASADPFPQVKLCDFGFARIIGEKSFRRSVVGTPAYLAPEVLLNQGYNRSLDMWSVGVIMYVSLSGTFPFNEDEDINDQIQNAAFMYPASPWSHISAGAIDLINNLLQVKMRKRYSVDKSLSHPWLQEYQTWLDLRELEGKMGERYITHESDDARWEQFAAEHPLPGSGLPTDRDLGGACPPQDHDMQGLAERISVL

[45] = target: Ron(h) (human) (UniProt Q04912)
[46] = target: Arg(h) (human) (UniProt P42684)
[47] = target: Met(M1268T)(h) (human) (UniProt P08581)
[48] = target: CDK2/cyclinA(h) (human) (UniProt P24941)
[49] = target: PrKX(h) (human) (UniProt P51817)
[50] = target: HIPK2(h) (human) (UniProt Q9H2X6)
[51] = target: SGK(h) (human) (UniProt O00141)
[52] = target: Met(h) (human) (UniProt P08581)
[53] = target: Fyn(h) (human) (UniProt P06241)
[54] = target: JNK3(h) (human) (UniProt P53779)
[55] = target: Pyk2(h) (human) (UniProt Q14289)
Chain of Pyk2(h) (human) (Q14289 whole entry): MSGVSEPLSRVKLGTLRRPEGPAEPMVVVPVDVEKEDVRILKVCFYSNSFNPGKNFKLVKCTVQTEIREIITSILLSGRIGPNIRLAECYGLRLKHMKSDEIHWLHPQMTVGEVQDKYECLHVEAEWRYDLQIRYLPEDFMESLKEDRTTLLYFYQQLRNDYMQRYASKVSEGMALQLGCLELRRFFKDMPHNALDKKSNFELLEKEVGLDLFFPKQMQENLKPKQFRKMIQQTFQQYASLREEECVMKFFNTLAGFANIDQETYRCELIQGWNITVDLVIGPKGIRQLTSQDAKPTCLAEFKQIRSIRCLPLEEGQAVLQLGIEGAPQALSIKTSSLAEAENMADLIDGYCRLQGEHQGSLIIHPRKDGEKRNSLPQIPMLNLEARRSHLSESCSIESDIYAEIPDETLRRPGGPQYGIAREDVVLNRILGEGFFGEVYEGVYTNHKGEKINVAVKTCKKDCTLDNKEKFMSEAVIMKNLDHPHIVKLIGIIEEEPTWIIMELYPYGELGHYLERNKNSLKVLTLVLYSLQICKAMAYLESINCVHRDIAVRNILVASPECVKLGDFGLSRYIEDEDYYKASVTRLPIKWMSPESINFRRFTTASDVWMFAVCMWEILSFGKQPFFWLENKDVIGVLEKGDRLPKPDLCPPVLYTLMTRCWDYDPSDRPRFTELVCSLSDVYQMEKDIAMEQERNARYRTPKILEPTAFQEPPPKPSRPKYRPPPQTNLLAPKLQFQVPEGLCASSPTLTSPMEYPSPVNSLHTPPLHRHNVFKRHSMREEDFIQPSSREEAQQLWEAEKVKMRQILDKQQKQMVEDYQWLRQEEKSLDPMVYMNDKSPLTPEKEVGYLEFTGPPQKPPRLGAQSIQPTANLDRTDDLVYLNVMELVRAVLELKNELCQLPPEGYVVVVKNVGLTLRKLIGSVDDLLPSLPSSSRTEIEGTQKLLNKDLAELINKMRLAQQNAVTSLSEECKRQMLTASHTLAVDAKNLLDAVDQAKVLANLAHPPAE

[56] = target: SAPK2b(h) (human) (UniProt Q15759)
[57] = target: PKA(h) (human)

Chain of EphB2(h) (human) (P29323 565-986 limits assumed): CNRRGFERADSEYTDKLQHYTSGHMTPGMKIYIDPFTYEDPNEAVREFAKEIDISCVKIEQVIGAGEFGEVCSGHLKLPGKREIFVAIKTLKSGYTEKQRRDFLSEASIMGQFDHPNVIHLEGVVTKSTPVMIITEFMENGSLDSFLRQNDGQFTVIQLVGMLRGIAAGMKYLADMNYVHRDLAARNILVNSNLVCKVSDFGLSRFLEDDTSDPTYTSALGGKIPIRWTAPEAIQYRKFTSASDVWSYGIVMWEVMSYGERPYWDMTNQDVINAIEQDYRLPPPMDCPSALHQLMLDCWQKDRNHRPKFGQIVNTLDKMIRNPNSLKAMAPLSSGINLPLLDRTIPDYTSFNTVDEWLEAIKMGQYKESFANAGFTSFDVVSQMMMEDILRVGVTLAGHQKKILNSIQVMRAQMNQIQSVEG

Substance: MMI-0500 (peptide)
- % activity [1]: 97%
- % activity [2]: 70%
- % activity [3]: 93%
- % activity [4]: -10%
- % activity [5]: 12%
- % activity [6]: 7%
- % activity [7]: 84%
- % activity [8]: 20%
- % activity [9]: 0%
- % activity [10]: 53%
- % activity [11]: 3%
- % activity [12]: 3%
- % activity [13]: 41%
- % activity [14]: 30%
- % activity [15]: 80%
- % activity [16]: 2%
- % activity [17]: 3%
- % activity [18]: 12%
- % activity [19]: 133%
- % activity [20]: 12%
- % activity [21]: 49%
- % activity [22]: 19%
- % activity [23]: -4%
- % activity [24]: 23%
- % activity [25]: 1%
- % activity [26]: 17%
- % activity [27]: 169%
- % activity [28]: 20%
- % activity [29]: 135%
- % activity [30]: 64%
- % activity [31]: 40%
- % activity [32]: 76%
- % activity [33]: 72%
- % activity [34]: -1%
- % activity [35]: 12%
- % activity [36]: 30%
- % activity [37]: 198%
- % activity [38]: 21%
- % activity [39]: 34%
- % activity [40]: 238%
- % activity [41]: 33%
- % activity [42]: 40%
- % activity [43]: 56%
- % activity [44]: 10%
- % activity [45]: 46%
- % activity [46]: 22%
- % activity [47]: 239%
- % activity [48]: 87%
- % activity [49]: 57%
- % activity [50]: 38%
- % activity [51]: 2%
- % activity [52]: 27%
- % activity [53]: 83%
- % activity [54]: 171%
- % activity [55]: 46%
- % activity [56]: 42%
- % activity [57]: 118%

Substance: MMI-0100 (peptide)
- % activity [1]: 62%
- % activity [2]: 68%
- % activity [3]: 111%
- % activity [4]: 103%
- % activity [5]: 49%
- % activity [6]: 72%
- % activity [7]: 129%
- % activity [8]: 105%
- % activity [9]: 97%
- % activity [10]: 93%
- % activity [11]: 97%
- % activity [12]: 97%
- % activity [13]: 70%
- % activity [14]: 140%
- % activity [15]: 92%
- % activity [16]: 102%
- % activity [17]: 102%
- % activity [18]: 81%
- % activity [19]: 113%
- % activity [20]: 118%
- % activity [21]: 109%
- % activity [22]: 100%
- % activity [23]: 100%
- % activity [24]: 44%
- % activity [25]: 88%
- % activity [26]: 99%
- % activity [27]: 112%
- % activity [28]: 108%
- % activity [29]: 102%
- % activity [30]: 106%
- % activity [31]: 114%
- % activity [32]: 108%
- % activity [33]: 100%
- % activity [34]: 103%
- % activity [35]: 60%
- % activity [36]: 92%
- % activity [37]: 94%
- % activity [38]: 95%
- % activity [39]: 86%
- % activity [40]: 113%
- % activity [41]: 100%
- % activity [42]: 113%
- % activity [43]: 146%
- % activity [44]: 84%
- % activity [45]: 117%
- % activity [46]: 89%
- % activity [47]: 114%
- % activity [48]: 97%
- % activity [49]: 84%
- % activity [50]: 98%
- % activity [51]: 128%
- % activity [52]: 104%
- % activity [53]: 71%
- % activity [54]: 104%
- % activity [55]: 113%
- % activity [56]: 99%
- % activity [57]: 138%
